Substitutions are numbered along the chain they refer to.
B1: FBC-39 (antibody, V domains shown)
VH: EVQLVVSGGGLVKPGGSLRLSCAASGLSFLNAWMSWVRQAPGKGLEWVGRIKSNTDGGTTDYAAPVKGRFSISRDDSKNMLFLHMSSLRTEDTAVYYCATDGPYSDDFRSGYAARYRYFGMDVWGQGTTVTVSS
VL: DIQMTQSPSSVSASVGDRVTITCRASQDISTWLAWYQQKPGKAPKLLIYAASSLQSGVPSRFSGSGSGTDFTLTISSLQPEDFATYFCQQANSFPPTFGQGTKLEIK
B2: FBC-39 FTL (antibody, V domains shown)
VH: B1 VH with V6E, L27F, S28T, S71T, M80T, F82Y, H84Q, R89K, A99T
VL: B1 VL with F87Y
B3: FBC-39 LTL (antibody, V domains shown)
VH: B1 VH with V6E, S28T, S71T, M80T, F82Y, H84Q, R89K, A99T
VL: B1 VL with F87Y
B4: FBC-39 FSL (antibody, V domains shown)
VH: B1 VH with V6E, L27F, S71T, M80T, F82Y, H84Q, R89K, A99T
VL: B1 VL with F87Y
B5: FBC-39 LTS (antibody, V domains shown)
VH: B1 VH with V6E, S28T, L30S, S71T, M80T, F82Y, H84Q, R89K, A99T
VL: B1 VL with F87Y
B6: FBC-39 FSS (antibody, V domains shown)
VH: B1 VH with V6E, L27F, L30S, S71T, M80T, F82Y, H84Q, R89K, A99T
VL: B1 VL with F87Y
B7: FBC-39 LSL (antibody, V domains shown)
VH: B1 VH with V6E, S71T, M80T, F82Y, H84Q, R89K, A99T
VL: B1 VL with F87Y
B8: FBD-56 (antibody, V domains shown)
VH: EVQLVESGGHLVQPGRSLRLSCAASGFTFEDYAMNWVRQAPGKGLEWVSVISWDSGRIGYADSVKGRFTISRDNAKNSSYLQMNSLRPEDTALYYCVRDMLAYYSDNSGKKYNVYGMDVWGQGTTVTVSS
VL: EIVLTQSPATLSLSPGERATLSCRASQSVSTFLAWYQQKPGQAPRLLMYDASNRATGIPARFSGSGSGTDFTLTISSLEPEDFAIYYCQQRSHWPPIFGQGTRLEIK
B9: FBD-94 (antibody, V domains shown)
VH: EVQLVESGGGLVQPGRSLRLSCAVSGFIFEDYAINWVRQAPGKGLEWVSIISWDSGRIGYADSVRGRFTISRDNAKNSSFLQMNSLRPEDTAVYYCVKDMLAYYYDGSGIRYNLYGMDVWGQGTTVTVSS
VL: B8 VL with Q27R, V29I, S30T, M48I, I58V, S76N, E81D, S92D

target: recombinant HA derived from Victoria lineage strain B/BNE/08 (B/Brisbane/60/2008) (influenza B virus B/Brisbane/60/2008); test: ELISA on coated recombinant HA, unpurified IgG

Binder	EC50 [µg/mL]
B1	0.186
B2	0.118
B3	0.114
B4	0.273
B5	> 1
B6	> 1
B7	0.152

target: recombinant HA derived from Yamagata lineage strain B/FLA/06 (B/Florida/4/2006) (influenza B virus B/Florida/4/2006); test: ELISA on coated recombinant HA, unpurified IgG

Binder	EC50 [µg/mL]
B1	0.022
B2	0.017
B3	0.017
B4	0.014
B5	0.013
B6	0.019
B7	0.021

target: recombinant HA derived from Victoria lineage strain B/BNE/08 (B/Brisbane/60/2008) (influenza B virus B/Brisbane/60/2008); test: ELISA on coated recombinant HA, average of three experiments

Binder	EC50 [µg/mL]
B8	0.03
B9	0.016
B1	0.048

target: recombinant HA derived from Yamagata lineage strain B/FLA/06 (B/Florida/4/2006) (influenza B virus B/Florida/4/2006); test: as above

Binder	EC50 [µg/mL]
B8	0.024
B9	0.013
B1	0.02

target: recombinant HA derived from influenza A subtype H9 (A/chicken/HK/G9/97 (H9N2)) (influenza A virus A/chicken/Hong Kong/G9/97 (H9N2)); test: ELISA on coated recombinant H9 HA

Binder	EC50 [µg/mL]
B1	6.2
B2	46.1
B3	6.3
B7	41.7

target: HA of influenza B virus B/Hong Kong/5/72 (influenza B virus B/Hong Kong/5/72); test: cell-based or functional assay

Binder	Neutralization (Ave IC50 ug/ml) [µg/mL]	Hemagglutination Inhibition Titer [nM]
B8	0.051	
B9	0.017	3
B1	0.026	8
B2	0.022	
B3	0.018	
B4	0.019	
B7	0.019	

target: HA of influenza B virus B/Malaysia/2506/2004 (victoria) (influenza B virus B/Malaysia/2506/2004); test: cell-based or functional assay

Binder	Neutralization (Ave IC50 ug/ml) [µg/mL]	Hemagglutination Inhibition Titer [nM]
B8	0.058	
B9	0.023	10
B1	0.079	20
B2	0.074	
B3	0.076	
B4	0.076	
B7	0.094	

target: HA of influenza B virus ca B/Beijing/243/97 (victoria) (influenza B virus B/Beijing/243/97); test: cell-based or functional assay

Binder	Neutralization (Ave IC50 ug/ml) [µg/mL]	Hemagglutination Inhibition Titer [nM]
B8	0.016	
B9	0.005	10
B1	0.218	14
B2	0.134	
B3	0.152	
B4	0.195	
B7	0.182	

target: HA of influenza B virus ca B/Victoria/504/2000 (yamagata) (influenza B virus B/Victoria/504/2000); test: cell-based or functional assay

Binder	Hemagglutination Inhibition Titer [nM]
B9	8
B1	16

target: HA of influenza B virus ca B/Ann Arbor/1/66 (influenza B virus B/Ann Arbor/1/66); test: cell-based or functional assay

Binder	Neutralization (Ave IC50 ug/ml) [µg/mL]	Hemagglutination Inhibition Titer [nM]
B8	0.035	
B9	0.014	10
B1	0.061	6
B2	0.026	
B3	0.023	
B4	0.034	
B7	0.027	

target: HA of influenza B virus B/Shanghai/361/02 (yamagata) (influenza B virus B/Shanghai/361/02); test: cell-based or functional assay

Binder	Hemagglutination Inhibition Titer [nM]
B9	0
B1	16

target: HA of influenza B virus B/Ohio/1/2005 (victoria) (influenza B virus B/Ohio/1/2005); test: cell-based or functional assay

Binder	Hemagglutination Inhibition Titer [nM]
B9	10
B1	24

target: HA of influenza B virus B/Sichuan/379/99 (yamagata) (influenza B virus B/Sichuan/379/99); test: cell-based or functional assay

Binder	Hemagglutination Inhibition Titer [nM]	Neutralization (Ave IC50 ug/ml) [µg/mL]
B9	5	
B1	10	0.034
B2		0.023
B3		0.023
B4		0.022
B7		0.026

target: HA of influenza B virus ca B/Ann Arbor/2/94 (yamagata) (influenza B virus B/Ann Arbor/2/94); test: cell-based or functional assay

Binder	Neutralization (Ave IC50 ug/ml) [µg/mL]	Hemagglutination Inhibition Titer [nM]
B8	1.25	
B9	0.891	5
B1	0.027	6
B2	0.023	
B3	0.023	
B4	0.023	
B7	0.033	

target: HA of influenza B virus B/Lee/40 (influenza B virus B/Lee/40) (UniProt P03460); test: cell-based or functional assay

Binder	Neutralization (Ave IC50 ug/ml) [µg/mL]	Hemagglutination Inhibition Titer [nM]
B8	0.004	
B9	0.009	1
B1	0.021	5
B2	0.013	
B3	0.01	
B4	0.011	
B7	0.014	

target: HA of influenza B virus B/Yamagata/16/88 (yamagata) (influenza B virus B/Yamagata/16/88); test: cell-based or functional assay

Binder	Hemagglutination Inhibition Titer [nM]
B9	250
B1	11

target: HA of influenza B virus ca B/Johannesburg/5/99 (yamagata) (influenza B virus B/Johannesburg/5/99); test: cell-based or functional assay

Binder	Neutralization (Ave IC50 ug/ml) [µg/mL]	Hemagglutination Inhibition Titer [nM]
B8	0.021	
B9	0.012	10
B1	0.304	18

target: HA of influenza B virus ca B/Georgia/02/98 (yamagata) (influenza B virus B/Georgia/02/98); test: cell-based or functional assay

Binder	Hemagglutination Inhibition Titer [nM]
B9	8
B1	16

target: HA of influenza B virus ca B/Yamanashi/166/98 (yamagata) (influenza B virus B/Yamanashi/166/98); test: cell-based or functional assay

Binder	Neutralization (Ave IC50 ug/ml) [µg/mL]	Hemagglutination Inhibition Titer [nM]
B8	0.133	
B9	0.012	10
B1	0.039	13
B2	0.007	
B3	0.01	
B4	0.009	
B7	0.014	

target: HA of influenza B virus B/Hong Kong/330/2001 (victoria) (influenza B virus B/Hong Kong/330/2001); test: cell-based or functional assay

Binder	Neutralization (Ave IC50 ug/ml) [µg/mL]	Hemagglutination Inhibition Titer [nM]
B8	0.038	
B9	0.021	10
B1	0.142	16
B2	0.121	
B3	0.084	
B4	0.132	
B7	0.172	

target: HA of influenza B virus ca B/Brisbane/60/2008 (victoria) (influenza B virus B/Brisbane/60/2008); test: cell-based or functional assay

Binder	Neutralization (Ave IC50 ug/ml) [µg/mL]	Hemagglutination Inhibition Titer [nM]
B8	0.01	
B9	0.006	4
B1	0.238	20
B2	0.098	
B3	0.151	
B4	0.08	
B7	0.1	

Source: patent US20250263470A1
